Here are results for one substance from article PMC8279307.

The experiment concerns the target SARS-CoV-2 Spike receptor-binding domain (SARS-CoV-2) (UniProt P0DTC2). As to the kind of experiment: AUC.

The stoichiometry N is a count of units in the complex or per binding partner.

Turning to “SARS-CoV-2 Spike receptor-binding domain (from UniProt P0DTC2) (domain or fragment)”, the stoichiometry N was determined as 2.
